Measurements from patent publication US20060127407A1.

Biological target: alphaVbeta3 integrin (human) (UniProt P06756)
Experiment: ELISA, purified antibody on alphaVbeta3

Sequence of alphaVbeta3 integrin (human) (P06756 31-1048, chain 1 of 2): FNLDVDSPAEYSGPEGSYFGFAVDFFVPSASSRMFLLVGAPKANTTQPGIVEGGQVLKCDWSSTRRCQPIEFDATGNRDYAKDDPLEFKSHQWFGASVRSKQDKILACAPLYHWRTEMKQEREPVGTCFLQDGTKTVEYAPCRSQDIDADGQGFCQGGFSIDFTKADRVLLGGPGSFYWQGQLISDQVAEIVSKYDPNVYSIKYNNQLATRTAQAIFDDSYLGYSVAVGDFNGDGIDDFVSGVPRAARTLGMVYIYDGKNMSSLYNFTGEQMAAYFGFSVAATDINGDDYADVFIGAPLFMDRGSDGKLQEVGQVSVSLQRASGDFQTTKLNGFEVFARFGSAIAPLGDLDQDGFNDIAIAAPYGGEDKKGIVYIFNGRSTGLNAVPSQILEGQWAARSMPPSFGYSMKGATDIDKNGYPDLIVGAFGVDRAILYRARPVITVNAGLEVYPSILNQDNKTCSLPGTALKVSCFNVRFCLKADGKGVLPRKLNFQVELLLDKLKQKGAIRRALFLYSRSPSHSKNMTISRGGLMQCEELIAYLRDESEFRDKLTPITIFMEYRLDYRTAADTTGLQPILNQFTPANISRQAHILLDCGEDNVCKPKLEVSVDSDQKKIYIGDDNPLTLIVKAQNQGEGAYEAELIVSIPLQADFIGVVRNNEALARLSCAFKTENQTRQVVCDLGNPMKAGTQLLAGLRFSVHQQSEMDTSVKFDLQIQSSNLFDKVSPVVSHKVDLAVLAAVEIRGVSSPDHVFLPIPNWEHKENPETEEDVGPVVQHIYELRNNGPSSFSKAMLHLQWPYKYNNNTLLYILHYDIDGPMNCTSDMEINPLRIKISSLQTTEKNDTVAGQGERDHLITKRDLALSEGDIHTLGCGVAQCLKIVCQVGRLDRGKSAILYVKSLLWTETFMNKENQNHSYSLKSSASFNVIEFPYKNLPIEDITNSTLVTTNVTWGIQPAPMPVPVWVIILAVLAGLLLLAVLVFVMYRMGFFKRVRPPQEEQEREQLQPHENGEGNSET
Sequence of alphaVbeta3 integrin (human) (P05106 27-788, chain 2 of 2, further chain): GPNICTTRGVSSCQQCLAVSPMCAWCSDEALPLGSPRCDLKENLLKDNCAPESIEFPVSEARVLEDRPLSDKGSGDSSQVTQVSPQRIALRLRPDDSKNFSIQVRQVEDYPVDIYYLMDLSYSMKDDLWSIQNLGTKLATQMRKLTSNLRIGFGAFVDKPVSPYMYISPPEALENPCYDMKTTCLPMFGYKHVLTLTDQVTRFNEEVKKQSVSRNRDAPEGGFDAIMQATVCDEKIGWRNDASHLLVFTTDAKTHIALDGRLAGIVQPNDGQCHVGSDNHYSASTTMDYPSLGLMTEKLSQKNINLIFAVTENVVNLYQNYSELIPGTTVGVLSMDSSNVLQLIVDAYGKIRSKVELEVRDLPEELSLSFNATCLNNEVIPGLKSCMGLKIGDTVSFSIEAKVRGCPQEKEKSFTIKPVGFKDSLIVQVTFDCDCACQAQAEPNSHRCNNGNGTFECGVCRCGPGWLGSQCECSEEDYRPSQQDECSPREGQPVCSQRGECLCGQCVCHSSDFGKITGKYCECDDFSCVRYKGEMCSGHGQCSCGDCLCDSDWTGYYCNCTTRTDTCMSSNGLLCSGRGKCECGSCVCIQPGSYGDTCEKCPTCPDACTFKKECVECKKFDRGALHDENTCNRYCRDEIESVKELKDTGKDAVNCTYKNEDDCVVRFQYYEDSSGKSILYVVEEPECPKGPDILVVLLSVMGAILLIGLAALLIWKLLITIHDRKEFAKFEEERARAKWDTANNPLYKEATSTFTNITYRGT

B1: c7E3 IgG (antibody, INN chains, looked up, V domains shown)
VH: EVQLQQSGTVLARPGASVKMSCEASGYTFTNYWMHWVKQRPGQGLEWIGAIYPGNSDTSYIQKFKGKAKLTAVTSTTSVYMELSSLTNEDSAVYYCTLYDGYYVFAYWGQGTLVTVSA
VL: EIVLTQSPVTLSVTPGDSVSLSCRASRDISNNLHWFQQTSHESPRLLIKYASQSMSGIPSRFSGSGSGTDFTLSINSVETEDFGMYFCQQTNSWPYTFGGGTKLEIK
modifications: IgG
EC50: 0.07 µg/mL
